Results reported in article doi:10.1101/2020.03.29.013490.

Assays:
[1] = target: recombinant human angiotensin-converting enzyme-2 (ACE2) (human) (UniProt Q9BYF1); assay: BLI
[2] = target: 2019-nCoV spike 1 protein (S1) (2019-nCoV (SARS-CoV-2)); assay: BLI

recombinant human angiotensin-converting enzyme-2 (ACE2) (human), sequence (Q9BYF1 18-740): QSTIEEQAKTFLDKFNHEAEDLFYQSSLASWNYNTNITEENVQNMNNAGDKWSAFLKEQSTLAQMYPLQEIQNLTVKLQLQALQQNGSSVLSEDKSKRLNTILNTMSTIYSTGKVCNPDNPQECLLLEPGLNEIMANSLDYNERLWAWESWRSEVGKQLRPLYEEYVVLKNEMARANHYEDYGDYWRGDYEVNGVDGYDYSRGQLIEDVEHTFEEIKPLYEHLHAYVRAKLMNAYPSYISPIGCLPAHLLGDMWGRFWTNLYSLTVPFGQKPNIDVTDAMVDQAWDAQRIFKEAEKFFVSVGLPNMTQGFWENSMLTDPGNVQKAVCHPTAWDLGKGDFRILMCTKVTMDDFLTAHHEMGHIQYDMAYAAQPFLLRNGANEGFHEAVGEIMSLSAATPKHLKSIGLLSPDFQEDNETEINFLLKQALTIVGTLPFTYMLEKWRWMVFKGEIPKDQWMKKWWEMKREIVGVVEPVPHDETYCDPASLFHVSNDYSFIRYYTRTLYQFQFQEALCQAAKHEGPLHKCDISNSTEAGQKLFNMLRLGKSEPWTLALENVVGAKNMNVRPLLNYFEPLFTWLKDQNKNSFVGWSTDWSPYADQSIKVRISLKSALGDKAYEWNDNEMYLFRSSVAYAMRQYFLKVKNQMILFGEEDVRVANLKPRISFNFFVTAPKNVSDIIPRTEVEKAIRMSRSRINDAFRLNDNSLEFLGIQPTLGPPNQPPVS
human defensin 5 (HD5), sequence (Q01523 63-94): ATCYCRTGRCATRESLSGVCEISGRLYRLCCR

Substance | Kd [1] [nM] | Kd [2] [nM]
2019-nCoV spike 1 protein (S1) (domain or fragment) | 2.68 | 
human defensin 5 (HD5) (from UniProt Q01523 63-94) (peptide) | 39.3 | 82.8
